{
  "source": "patent US20130039923A1",
  "about": "(Novo Nordisk, published 2013)",
  "molecules": {"B1": {"name": "recombinant human interleukin-20 (ligand)", "chain": "LKTLNLGSCVIATNLQEIRNGFSEIRGSVQAKDGNIDIRILRRTESLQDTKPANRCCLLRHLLRLYLDRVFKNYQTPDHYTLRKISSLANSFLTIKKDLRLCHAHMTCHCGEEAMKKYSQILSHFEKLEPQAAVVKALGELDILLQWMEETE"}},
  "key": {"[1]": {"target": "cynomolgus IL20R1/IL20R2 receptor complex (cynomolgus monkey)", "assay": "cell-based or functional assay"}, "[2]": {"target": "cynomolgus IL22R1/IL20R2 receptor complex (cynomolgus monkey)", "assay": "cell-based or functional assay"}, "[3]": {"target": "T1, human IL20R1/IL20R2 receptor complex (human, UniProt Q9UHF4 30-553; Q6UXL0 30-311)", "T1 sequence (looked up) 1": "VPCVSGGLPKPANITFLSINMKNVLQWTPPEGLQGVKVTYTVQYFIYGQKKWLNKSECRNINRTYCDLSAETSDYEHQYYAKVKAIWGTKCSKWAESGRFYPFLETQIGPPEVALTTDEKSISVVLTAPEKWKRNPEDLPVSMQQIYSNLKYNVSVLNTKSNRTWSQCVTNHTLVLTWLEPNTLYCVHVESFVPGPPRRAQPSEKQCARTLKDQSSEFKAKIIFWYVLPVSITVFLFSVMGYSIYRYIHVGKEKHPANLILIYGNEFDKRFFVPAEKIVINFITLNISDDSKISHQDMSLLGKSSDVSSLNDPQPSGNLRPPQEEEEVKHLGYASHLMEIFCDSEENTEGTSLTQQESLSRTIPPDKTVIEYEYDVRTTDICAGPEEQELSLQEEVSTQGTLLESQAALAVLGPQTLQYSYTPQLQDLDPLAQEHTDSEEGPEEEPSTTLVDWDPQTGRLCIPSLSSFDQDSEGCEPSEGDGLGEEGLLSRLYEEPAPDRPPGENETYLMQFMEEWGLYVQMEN", "T1 sequence (looked up) 2": "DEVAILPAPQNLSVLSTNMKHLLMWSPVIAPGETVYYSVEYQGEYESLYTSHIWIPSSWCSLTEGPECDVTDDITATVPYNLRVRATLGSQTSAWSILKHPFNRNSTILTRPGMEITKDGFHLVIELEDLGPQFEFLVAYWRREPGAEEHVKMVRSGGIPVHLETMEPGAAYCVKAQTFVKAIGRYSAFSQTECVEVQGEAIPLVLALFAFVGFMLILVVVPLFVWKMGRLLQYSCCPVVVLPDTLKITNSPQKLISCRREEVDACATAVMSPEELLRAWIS", "assay": "cell-based or functional assay"}, "[4]": {"target": "T2, human IL22R1/IL20R2 receptor complex (human, UniProt Q8N6P7 16-574; Q6UXL0 30-311)", "T2 sequence (looked up) 1": "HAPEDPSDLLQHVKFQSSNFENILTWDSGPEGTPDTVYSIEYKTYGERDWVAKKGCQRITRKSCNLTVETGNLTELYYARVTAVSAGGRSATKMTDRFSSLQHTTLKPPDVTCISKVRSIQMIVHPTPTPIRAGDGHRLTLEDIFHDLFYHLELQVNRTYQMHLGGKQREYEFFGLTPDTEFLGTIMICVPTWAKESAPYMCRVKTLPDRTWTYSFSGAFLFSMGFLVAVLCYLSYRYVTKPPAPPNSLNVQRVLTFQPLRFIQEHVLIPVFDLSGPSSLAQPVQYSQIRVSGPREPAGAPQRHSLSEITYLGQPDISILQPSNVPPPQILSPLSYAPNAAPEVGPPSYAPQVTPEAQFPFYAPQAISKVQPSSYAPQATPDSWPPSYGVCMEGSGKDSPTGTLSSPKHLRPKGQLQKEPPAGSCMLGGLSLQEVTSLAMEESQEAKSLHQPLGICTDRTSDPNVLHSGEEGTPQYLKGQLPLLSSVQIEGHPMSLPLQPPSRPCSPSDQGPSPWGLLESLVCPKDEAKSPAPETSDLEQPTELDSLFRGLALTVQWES", "T2 sequence (looked up) 2": "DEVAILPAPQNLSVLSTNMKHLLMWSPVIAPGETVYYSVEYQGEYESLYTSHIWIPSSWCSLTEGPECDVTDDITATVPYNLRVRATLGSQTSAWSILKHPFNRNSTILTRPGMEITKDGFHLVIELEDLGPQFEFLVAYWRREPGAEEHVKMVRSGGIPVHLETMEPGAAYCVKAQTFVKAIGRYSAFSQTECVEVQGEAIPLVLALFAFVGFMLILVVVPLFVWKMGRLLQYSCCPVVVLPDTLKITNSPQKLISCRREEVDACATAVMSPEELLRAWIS", "assay": "cell-based or functional assay"}, "[5]": {"target": "T1, human IL20R1/IL20R2 receptor complex", "assay": "inferred from BaF-3(hIL20R) proliferation; IL19 reverted the 15D2 block"}, "[6]": {"target": "B1", "assay": "cell-based or functional assay"}, "[7]": {"target": "B1", "assay": "SPR (Biacore 3000/T100), antibody amine-coupled on CM5, recombinant hIL20 injected 3.125-100 nM, 1:1 Langmuir, 25 C; antibody from CHO", "protocol": "(§1) Affinity studies were performed using a direct binding procedure, with the monoclonal antibody covalently coupled via free amine groups to the carboxymethylated dextrane membrane (CM5) on the sensor chip surface. […] The kinetic parameters for the interaction could be calculated using a 1:1 interaction Langmuir fitting model.\n(§2) The purified monoclonal antibodies were immobilized in individual flow cells on a CM5 type sensor chip. Immobilizations were performed using a standard amine coupling procedure, aiming for an immobilization level of 1000 Resonance Units (RU). The antibodies were diluted to 5 μg/ml in 10 mM NaAc pH 5.0. […] Association (injection) was 3 min., followed by a 30 min. dissociation (wash) period. Flow rate was 30 μl/min. Experiments were performed at 25° C. Regeneration of the surface following each cycle, was accomplished by injection of 30 sec. pulse of 10 mM Glycin-HCl pH 1.8, at a 30 ul/min flow rate. Detection in all flow cells simultaneously. Flow cell No. 1 contained no immobilized antibody, and was used for subtraction of background and bulk. […] Data was inspected for mass-transport limitations prior to calculation of the kinetic parameters. Experiments were performed on Biacore 3000 and T100 instruments. Data was evaluated using Biaeval 4.1 and Biacore T100 evaluation software."}, "[8]": {"target": "B1", "assay": "SPR (Biacore 3000/T100), antibody amine-coupled on CM5, recombinant hIL20 injected 3.125-100 nM, 1:1 Langmuir, 25 C; antibody from HEK293", "protocol": "as §1, §2"}},
  "data": [
    {"molecule": "cynomolgus IL20 (from UniProt Q9NYY1 25-176) (ligand)", "values": [
      {"measurement": "fold induction of luciferase reporter in transfected BHK cells, 1 nM cynoIL20", "setting": "[1]", "result": 2, "unit": "fold"},
      {"measurement": "fold induction of luciferase reporter in transfected BHK cells, 1 nM cynoIL20", "setting": "[2]", "result": "3 to 4", "unit": "fold"}
    ]},
    {"molecule": "B1", "values": [
      {"measurement": "fold induction of luciferase reporter in transfected BHK cells, 1 nM hIL20", "setting": "[3]", "result": "~3", "unit": "fold"},
      {"measurement": "fold induction of luciferase reporter in transfected BHK cells, 1 nM hIL20", "setting": "[4]", "result": "~3", "unit": "fold"}
    ]},
    {"molecule": "human IL19 (ligand, Bought from R&D systems; whole entry named; also called hIL19) LRRCLISTDMHHIEESFQEIKRAIQAKDTFPNVTILSTLETLQIIKPLDVCCVTKNLLAFYVDRVFKDHQEPNPKILRKISSIANSFLYMQKTLRQCQEQRQCHCRQEATNATRVIHDNYDQLEVHAAAIKSLGELDVFLAWINKNHEVMFSA", "values": [
      {"measurement": "binding result", "setting": "[5]", "result": "binds"}
    ]},
    {"molecule": "human anti-IL20 antibody 2F6 (antibody, human IgG4, V domains shown) VH: QITLKESGPTLVKPTQTLTLTCTFSGFSFSTNGVGVGWIRQPPGKALEWLALIYWNDDKRYSPSLKSRLTITKDTSKNQVVLTMTNMDPLDTATYYCAHSPFIMVRGVIITFFDFWGQGTLVT VL: VIWMTQSPSLLSASTGDRVTISCRMSQGISSYLAWYQQKPGKAPELLIYAASTLQSGVPSRFSGSGSGTDFTLTISCLQSEDFATYYCQQYYSFPLTFGGGTKVEIKR", "values": [
      {"measurement": "IC50, inhibition of IL20 induced proliferation of BaF-3(hIL20R) at 1e-9M hIL20 (assay 1)", "setting": "[6]", "result": 15400, "unit": "nM"},
      {"measurement": "IC50, inhibition of IL20 induced proliferation of BaF-3(hIL20R) at 1e-9M hIL20 (assay 2)", "setting": "[6]", "result": 13900, "unit": "nM"},
      {"measurement": "IC50, inhibition of IL20 induced proliferation of BaF-3(hIL20R) at 1e-9M hIL20 (assay 3)", "setting": "[6]", "result": 1670, "unit": "nM"},
      {"measurement": "IC50, inhibition of IL20 induced proliferation of BaF-3(hIL20R) at 1e-9M hIL20 (assay 4)", "setting": "[6]", "result": 360, "unit": "nM"},
      {"measurement": "IC50, inhibition of IL20 induced proliferation of BaF-3(hIL20R) at 1e-9M hIL20 (assay 5)", "setting": "[6]", "result": 1800, "unit": "nM"},
      {"measurement": "IC50, inhibition of IL20 induced proliferation of BaF-3(hIL20R) at 1e-9M hIL20 (assay 6)", "setting": "[6]", "result": 320, "unit": "nM"},
      {"measurement": "IC50, inhibition of IL20 induced proliferation of BaF-3(hIL20R) at 1e-9M hIL20 (assay 7)", "setting": "[6]", "result": 15400, "unit": "nM"}
    ]},
    {"molecule": "F18 (LC: F56Type1; HC: F18) (antibody, human IgG4, V domains shown) VH: QVQVVQSGAEVKKPGASVRVSCTASGYTFTDYAIHWVRQAPGQRLEWMGWINAGYGNTKYSQKFQGRVTITRDTSASTVYMELSSLRSEDTAVYYCAREGGALSWFGESQGFDYWGQGTLVT VL: AIQLTQSPSSLSASVGDRVTITCRASQGISSALAWYQQKPGKAPKLLIYDASSLESGVPSRFSGSGSGTDFTLTISSLQPEDFATYYCQQFNSYPLTFGGGTKVEIKR", "values": [
      {"measurement": "IC50, inhibition of IL20 induced proliferation of BaF-3(hIL20R) at 1e-9M hIL20 (assay 5)", "setting": "[6]", "result": 50, "unit": "nM"}
    ]},
    {"molecule": "15D2 with an S241P mutation (antibody, V domains shown, IgG4 hinge mutation S241P (Kabat); Expressed in HEK293 or CHO cells (host named under assay); also called 15D2-S241P; not shown: human IgG4 heavy chain constant region) VH: QVQLVQSGAEVKRPGASVKVSCKASGYTFTNDIIHWVRQAPGQRLEWMGWINAGYGNTQYSQNFQDRVSITRDTSASTAYMELISLRSEDTAVYYCAREPLWFGESSPHDYYGMDVWGQGTTVTVSS VL: AIQLTQSPSSLSASVGDRVTITCRASQGISSALAWYQQKPGKAPKLLIYDASSLESGVPSRFSGSGSGTDFTLTISSLQPEDFATYYCQQFNSYPLTFGGGTKVEIKR", "values": [
      {"measurement": "Kd", "setting": "[7]", "result": 0.031, "unit": "nM"},
      {"measurement": "koff", "setting": "[7]", "result": "7.1e-05", "unit": "s⁻¹"},
      {"measurement": "kon", "setting": "[7]", "result": "2.3e+06", "unit": "M⁻¹ s⁻¹"},
      {"measurement": "Kd", "setting": "[8]", "result": 0.036, "unit": "nM"},
      {"measurement": "koff", "setting": "[8]", "result": "6.8e-05", "unit": "s⁻¹"},
      {"measurement": "kon", "setting": "[8]", "result": "1.7e+06", "unit": "M⁻¹ s⁻¹"}
    ]},
    {"molecule": "F56 (LC: F56Type1; HC: F56) (antibody, human IgG4, V domains shown) VH: QVQLVQSGAEVKKPGASVRVSCTASGYTFPNYAIHWVRQAPGQRLEWMGWINAGYGNTKYSQKFQGRVTITRDTSASTAYMELSSLRSEDTAVYYCAREGGVLLWFGESQGFDYWGQGTLVT VL: AIQLTQSPSSLSASVGDRVTITCRASQGISSALAWYQQKPGKAPKLLIYDASSLESGVPSRFSGSGSGTDFTLTISSLQPEDFATYYCQQFNSYPLTFGGGTKVEIKR", "values": [
      {"measurement": "IC50, inhibition of IL20 induced proliferation of BaF-3(hIL20R) at 1e-9M hIL20 (assay 4)", "setting": "[6]", "result": 40, "unit": "nM"},
      {"measurement": "IC50, inhibition of IL20 induced proliferation of BaF-3(hIL20R) at 1e-9M hIL20 (assay 5)", "setting": "[6]", "result": 730, "unit": "nM"}
    ]},
    {"molecule": "human anti-IL20 antibody C11 (antibody, human IgG1, V domains shown) VH: QVQLVQSGAEVKRPGASVKVSCKASGYTFTNDIIHWVRQAPGQRLEWMGWINAGYGNTQYSQNFQDRVSITRDTSASTAYMELISLRSEDTAVYYCAREPLWFGESSPHDYYGMDVWGQGTTVTVSS VL: AIQLTQSPSSLSASVGDRVTITCRASQGISSALAWYQQKPGKAPKLLIYDASSLESGVPSRFSGSGSGTDFTLTISSLQPEDFATYYCQQFNSYPLTFGGGTKVEIKR", "values": [
      {"measurement": "IC50, inhibition of IL20 induced proliferation of BaF-3(hIL20R) at 1e-9M hIL20 (assay 1)", "setting": "[6]", "result": 260, "unit": "nM"},
      {"measurement": "IC50, inhibition of IL20 induced proliferation of BaF-3(hIL20R) at 1e-9M hIL20 (assay 2)", "setting": "[6]", "result": 2000, "unit": "nM"},
      {"measurement": "IC50, inhibition of IL20 induced proliferation of BaF-3(hIL20R) at 1e-9M hIL20 (assay 3)", "setting": "[6]", "result": 370, "unit": "nM"},
      {"measurement": "IC50, inhibition of IL20 induced proliferation of BaF-3(hIL20R) at 1e-9M hIL20 (assay 7)", "setting": "[6]", "result": 186, "unit": "nM"}
    ]}
  ]
}
